The test system of this data set is T1, NsrX (Alr1976) (Anabaena sp. strain PCC 7120), ORF:44a8eb4f.
T1 sequence: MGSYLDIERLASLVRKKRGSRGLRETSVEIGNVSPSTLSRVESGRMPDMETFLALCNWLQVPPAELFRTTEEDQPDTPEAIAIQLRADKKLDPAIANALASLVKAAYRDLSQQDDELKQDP
The data set can be described thus: EMSA. The conditions noted are these: 10 mM Bis-Tris-HCl pH 7.5, 40 mM KCl, 0.1 mg/mL BSA, 5% glycerol, 50 ng DNA, 50-100 ng ifpkn22 competitor, 30 min room temperature; NsrX +100 uM MnCl2 (also in …).

Consider “CATCTTGGAAACCAAGTTGCACAAACATCAGTAAGACAATAAAAGCAATGCCAGCTACAGCTATAAGAAAACGAATTTTCTGTTGGACTAGCTGTAGCCATGCTAAAGGAATTTTAAAATTCATATTGATTTTGTCAGTTGACAGTTGATAGTTGATAGTTGTCAGTTGACTAATGACAATTAAATTTGAATCGCTACATCAACTTGTAAGTTGGTCAAACGTCCTACCCGTTCGCTATCTGCG (double strand) [PhgdC]”, for which the binding result is “binds”.

As to “GGCGTGTGGCTCTTGTTCTAGTAGTACAGCCACCTTAAAGATAGCGATTGAATCCAGATTACGCGATCGCATCAACCCCAGCCTAGTAGTAGAAGCAGTTTAGTTAACAGTTAACAGTAAACCGTTAACTAACACCCAAAAGAACTTTCACAACTACATAACGAACCCATCATGAACACTAATTCTACTGGTTTTTCTGTGGAGCGATCGCCCCCTCTTCGGCGACGTTCTACAAACCCCTCACAGCCATAGCTCAACAGGCGTGAGATCCAAACACAAAGACCGACCAACTAACCAACC (double strand) [PnifHDK]”, the binding entry is given as “binds”.

The values are drawn from publication PMC12584617.
